From article PMC6989145

Columns and labels:
[1] = target: murine perforin-2 (mPFN2) ectodomain (mouse) (UniProt A1L314); assay: cryo-EM structure; pore: pre-pore sample lowered to pH 3.6 to 4.0 with 0.056% Cymal-6, room temperature, 30 min; C16 symmetry
[2] = target: murine perforin-2 (mPFN2) ectodomain (mouse) (UniProt A1L314); assay: high-speed atomic force microscopy; PFN2 monomers (0.043 mg/ml) incubated 5 min directly on freshly cleaved mica; 20 mM Hepes-NaOH pH 7.5, 200 mM NaCl, 2 mM CaCl2
[3] = target: murine perforin-2 (mPFN2) ectodomain (mouse) (UniProt A1L314); assay: high-speed atomic force microscopy; PFN2 monomers (0.043 mg/ml) incubated 5 min on a mica-supported E. coli lipid bilayer; 20 mM Hepes-NaOH pH 7.5, 200 mM NaCl, 2 mM CaCl2; subunit association and dissociation at incomplete rings, frames of 500 ms
[4] = target: murine perforin-2 (mPFN2) ectodomain (mouse) (UniProt A1L314); assay: cryo-EM structure; pre-pore oligomers formed in solution: 0.5 mg/ml in 50 mM citric acid buffer pH 5.5, 150 mM NaCl, 37°C overnight; purified by SEC (Superose 6); 0.01% Tween 20 added; C16 symmetry

“murine perforin-2 (mPFN2) ectodomain (from UniProt A1L314 20-652) (domain or fragment)” was tested, and the stoichiometry N [1] was 16, the stoichiometry N [2] was 1 to 16 subunits and the subunit association rate (subunits·s^−1) [3] was 2.4. For the same substance, the stoichiometry N [4] was 16 subunits.
